# According to US6677436:
# Target: recombinant Protein G (UniProt P19909)
# Assay: BIACORE; 10 µl of 72 nM antibody injected over Protein G immobilized on CM5 chip
row,Binder,RU bound
1,"H chain humanized version i/L chain humanized version b2 antibody (antibody, V domains shown, Expressed from vector N5KG4P (IgG4-type, human Cgamma4 and Ckappa); also called i-b2; ib2) VH: QVQLLESGAVLARPGTSVKISCKASGFNIKDYYMHWVKQRPGQGLEWIGGNDPANGHSMYDPKFQGRVTITADTSTSTVFMELSSLRSEDTAVYYCARDSGYAMDYWGQGTLVTVSS VL: DIQMTQSPSSLSASVGDRVTITCKASQDIKSFLSWYQQKPEKAPKSLIYYATSLADGVPSRFSGSGSGTDYTLTISSLQPEDFATYYCLQHGESPYTFGGGTKVEIK",1000 RU

# Target: T1, soluble human TF (human TF amino acids 1-219 with the FLAG peptide at the C-terminal) (human, UniProt P13726 33-251)
# T1 construct: Expressed in CHO cells and purified; The entry is the whole soluble TF construct (TF 1-219 plus FLAG peptide M2); The entry may include the signal peptide; also called shTF; soluble TF
# Assay: BIACORE; antibody captured on Protein G chip, soluble TF as analyte; mean ± SD, n = 3
# T1 sequence (P13726 other isoform, or with tags, fused parts or gaps limits assumed): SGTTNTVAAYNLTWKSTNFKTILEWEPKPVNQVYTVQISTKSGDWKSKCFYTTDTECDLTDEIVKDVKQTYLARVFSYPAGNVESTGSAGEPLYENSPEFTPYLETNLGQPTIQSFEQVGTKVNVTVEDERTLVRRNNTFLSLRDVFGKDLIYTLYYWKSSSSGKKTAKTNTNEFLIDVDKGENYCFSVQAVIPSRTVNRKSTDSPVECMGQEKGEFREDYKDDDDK
Binder,Kd,koff,kon
"H chain humanized version i/L chain humanized version b antibody (antibody, V domains shown, Expressed from vector N5KG4P (IgG4-type, human Cgamma4 and Ckappa); also called hHvi-hLvb/N5KG4P) VH: QVQLLESGAVLARPGTSVKISCKASGFNIKDYYMHWVKQRPGQGLEWIGGNDPANGHSMYDPKFQGRVTITADTSTSTVFMELSSLRSEDTAVYYCARDSGYAMDYWGQGTLVTVSS VL: DIQMTQSPSSLSASVGDRVTITCKASQDIKSFLSWYQQKPGKAPKLLIYYATSLADGVPSRFSGSGSGTDYTLTISSLQPEDFATYYCLQHGESPYTFGGGTKVEIK",1.39 nM,0.000649 s⁻¹,467000 M⁻¹ s⁻¹
"H chain humanized version i/L chain humanized version b2 antibody (antibody, V domains shown, Expressed from vector N5KG4P (IgG4-type, human Cgamma4 and Ckappa); also called i-b2; ib2) VH: QVQLLESGAVLARPGTSVKISCKASGFNIKDYYMHWVKQRPGQGLEWIGGNDPANGHSMYDPKFQGRVTITADTSTSTVFMELSSLRSEDTAVYYCARDSGYAMDYWGQGTLVTVSS VL: DIQMTQSPSSLSASVGDRVTITCKASQDIKSFLSWYQQKPEKAPKSLIYYATSLADGVPSRFSGSGSGTDYTLTISSLQPEDFATYYCLQHGESPYTFGGGTKVEIK",1.17 nM,0.000635 s⁻¹,544000 M⁻¹ s⁻¹

# Target: T2, human tissue factor (TF) on human bladder carcinoma cells J82 (human, UniProt P13726 33-295)
# T2 construct: whole, on cells; J82 is described as a TF-high expression cell line; also called the antigen; J82 (ATCC HTB-1)
# Assay: cell ELISA on fixed J82 cells
# T2 sequence (P13726 33-295): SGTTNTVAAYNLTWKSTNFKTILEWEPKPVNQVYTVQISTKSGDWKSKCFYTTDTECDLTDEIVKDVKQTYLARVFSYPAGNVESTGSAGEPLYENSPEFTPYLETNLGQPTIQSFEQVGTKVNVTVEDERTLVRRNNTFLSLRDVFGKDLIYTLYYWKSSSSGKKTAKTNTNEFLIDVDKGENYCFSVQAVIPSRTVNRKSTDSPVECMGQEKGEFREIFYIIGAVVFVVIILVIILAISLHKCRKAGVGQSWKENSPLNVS
row,Binder,binding result
1,"H chain chimeric/L chain humanized version b antibody (antibody, V domains shown, Expressed from vector N5KG4P (IgG4-type, human Cgamma4 and Ckappa); also called ch-b; chHv-hLvb/N5KG4P) VH: EVQLQQSGTNLVRPGALVKLSCKGSGFNIKDYYMHWVKQRPEQGLEWIGGNDPANGHSMYDPKFQGKASITADTSSNTAYLQLSSLTSEDTAVYFCARDSGYAMDYWGQGTSVTVSS VL: DIQMTQSPSSLSASVGDRVTITCKASQDIKSFLSWYQQKPGKAPKLLIYYATSLADGVPSRFSGSGSGTDYTLTISSLQPEDFATYYCLQHGESPYTFGGGTKVEIK",binds
2,"H chain humanized version b/L chain chimeric antibody (antibody, V domains shown, Expressed from vector N5KG4P (IgG4-type, human Cgamma4 and Ckappa); also called b-ch; hHvb-chLv/N5KG4P) VH: QVQLLESGAVLARPGTSVKISCKASGFNIKDYYMHWVKQRPGQGLEWIGGNDPANGHSMYDPKFQGRVTITADTSTNTAYMELSSLRSEDTAIYYCARDSGYAMDYWGQGTLVTVSS VL: DIKMTQSPSSMYASLGERVTITCKASQDIKSFLSWYQQKPWKSPKTLIYYATSLADGVPSRFSGSGSGQDYSLTINNLESDDTATYYCLQHGESPYTFGGGTKLEIK",binds
3,"H chain humanized version a/L chain humanized version a antibody (antibody, V domains shown, Expressed from vector N5KG4P (IgG4-type, human Cgamma4 and Ckappa); also called hHva-hLva/N5KG4P) VH: QVQLLESGAVLARPGTSVKISCKASGFNIKDYYMHWVKQRPGQGLEWIGGNDPANGHSMYDPKFQGRAKLTAATSASIAYLEFSSLTNEDSAVYYCARDSGYAMDYWGQGTLVTVSS VL: DIQMTQSPSSLSASVGDRVTITCKASQDIKSFLSWYQQKPGKAPKLLIYYATSLADGVPSRFSGSGSGTDFTLTISSLQPEDFATYYCLQHGESPYTFGGGTKVEIK",binds
4,"H chain humanized version i/L chain chimeric antibody (antibody, V domains shown, Expressed from vector N5KG4P (IgG4-type, human Cgamma4 and Ckappa); also called i-ch; hHvi-chLv/N5KG4P) VH: QVQLLESGAVLARPGTSVKISCKASGFNIKDYYMHWVKQRPGQGLEWIGGNDPANGHSMYDPKFQGRVTITADTSTSTVFMELSSLRSEDTAVYYCARDSGYAMDYWGQGTLVTVSS VL: DIKMTQSPSSMYASLGERVTITCKASQDIKSFLSWYQQKPWKSPKTLIYYATSLADGVPSRFSGSGSGQDYSLTINNLESDDTATYYCLQHGESPYTFGGGTKLEIK",binds
5,"H chain humanized version d/L chain chimeric antibody (antibody, V domains shown, Expressed from vector N5KG4P (IgG4-type, human Cgamma4 and Ckappa); also called d-ch; hHvd-chLv/N5KG4P) VH: QVQLLESGAVLARPGTSVKISCKASGFNIKDYYMHWVKQRPGQGLEWIGGNDPANGHSMYDPKFQGRVTITADESTSTAYMELSSLRSEDSAVYFCARDSGYAMDYWGQGTLVTVSS VL: DIKMTQSPSSMYASLGERVTITCKASQDIKSFLSWYQQKPWKSPKTLIYYATSLADGVPSRFSGSGSGQDYSLTINNLESDDTATYYCLQHGESPYTFGGGTKLEIK",binds
6,"H chain humanized version g/L chain humanized version b antibody (antibody, V domains shown, Expressed from vector N5KG4P (IgG4-type, human Cgamma4 and Ckappa); also called g-b; hHvg-hLvb/N5KG4P) VH: QVQLLESGAVLARPGTSVKISCKASGFNIKDYYMHWVKQRPGQGLEWIGGNDPANGHSMYDPKFQGKATLTADESSSTAYMQLSSLRSEDSAVYSCARDSGYAMDYWGQGTLVTVSS VL: DIQMTQSPSSLSASVGDRVTITCKASQDIKSFLSWYQQKPGKAPKLLIYYATSLADGVPSRFSGSGSGTDYTLTISSLQPEDFATYYCLQHGESPYTFGGGTKVEIK",binds
7,"H chain humanized version i/L chain humanized version b1 antibody (antibody, V domains shown, Expressed from vector N5KG4P (IgG4-type, human Cgamma4 and Ckappa); also called i-b1; hHvi-hLvb1/N5KG4P) VH: QVQLLESGAVLARPGTSVKISCKASGFNIKDYYMHWVKQRPGQGLEWIGGNDPANGHSMYDPKFQGRVTITADTSTSTVFMELSSLRSEDTAVYYCARDSGYAMDYWGQGTLVTVSS VL: DIQMTQSPSSLSASVGDRVTITCKASQDIKSFLSWFQQKPGKSPKTLIYYATSLADGVPSRFSGSGSGTDYTLTISSLQPEDFATYYCLQHGESPYTFGGGTKVEIK",binds
8,"H chain chimeric/L chain humanized version c antibody (antibody, V domains shown, Expressed from vector N5KG4P (IgG4-type, human Cgamma4 and Ckappa); also called ch-c; chHv-hLvc/N5KG4P) VH: EVQLQQSGTNLVRPGALVKLSCKGSGFNIKDYYMHWVKQRPEQGLEWIGGNDPANGHSMYDPKFQGKASITADTSSNTAYLQLSSLTSEDTAVYFCARDSGYAMDYWGQGTSVTVSS VL: DIQMTQSPSSLSASVGDRVTITCKASQDIKSFLSWYQQKPGKAPKLLIYYATSLADGVPSRFSGSGSGTDYTLTISSLQPEDIATYYCLQHGESPYTFGGGTKVEIK",binds
9,"H chain humanized version e/L chain chimeric antibody (antibody, V domains shown, Expressed from vector N5KG4P (IgG4-type, human Cgamma4 and Ckappa); also called e-ch; hHve-chLv/N5KG4P) VH: QVQLLESGAVLARPGTSVKISCKASGFNIKDYYMHWVKQRPGQGLEWIGGNDPANGHSMYDPKFQGRVSITADESTKIAYMELNSLRSEDTAVYFCARDSGYAMDYWGQGTLVTVSS VL: DIKMTQSPSSMYASLGERVTITCKASQDIKSFLSWYQQKPWKSPKTLIYYATSLADGVPSRFSGSGSGQDYSLTINNLESDDTATYYCLQHGESPYTFGGGTKLEIK",binds
10,"H chain humanized version d3/L chain humanized version b antibody (antibody, V domains shown, Expressed from vector N5KG4P (IgG4-type, human Cgamma4 and Ckappa); also called d3-b; hHvd3-hLvb/N5KG4P) VH: QVQLLESGAVLARPGTSVKISCKASGFNIKDYYMHWVRQAPGQGLEWIGGNDPANGHSMYDPKFQGRVTITADESTSTAYMELSSLRSEDSAVYFCARDSGYAMDYWGQGTLVTVSS VL: DIQMTQSPSSLSASVGDRVTITCKASQDIKSFLSWYQQKPGKAPKLLIYYATSLADGVPSRFSGSGSGTDYTLTISSLQPEDFATYYCLQHGESPYTFGGGTKVEIK",binds
11,"H chain chimeric/L chain humanized version a antibody (antibody, V domains shown, Expressed from vector N5KG4P (IgG4-type, human Cgamma4 and Ckappa); also called chHv-hLva/N5KG4P) VH: EVQLQQSGTNLVRPGALVKLSCKGSGFNIKDYYMHWVKQRPEQGLEWIGGNDPANGHSMYDPKFQGKASITADTSSNTAYLQLSSLTSEDTAVYFCARDSGYAMDYWGQGTSVTVSS VL: DIQMTQSPSSLSASVGDRVTITCKASQDIKSFLSWYQQKPGKAPKLLIYYATSLADGVPSRFSGSGSGTDFTLTISSLQPEDFATYYCLQHGESPYTFGGGTKVEIK",binds
12,"H chain humanized version b/L chain humanized version c antibody (antibody, V domains shown, Humanized antibodies were expressed from vector N5KG4P (IgG4-type); the construction of the b-c plasmid itself is not described; also called b-c) VH: QVQLLESGAVLARPGTSVKISCKASGFNIKDYYMHWVKQRPGQGLEWIGGNDPANGHSMYDPKFQGRVTITADTSTNTAYMELSSLRSEDTAIYYCARDSGYAMDYWGQGTLVTVSS VL: DIQMTQSPSSLSASVGDRVTITCKASQDIKSFLSWYQQKPGKAPKLLIYYATSLADGVPSRFSGSGSGTDYTLTISSLQPEDIATYYCLQHGESPYTFGGGTKVEIK",binds
13,"H chain humanized version b/L chain humanized version b2 antibody (antibody, V domains shown, Expressed from vector N5KG4P (IgG4-type, human Cgamma4 and Ckappa); also called b-b2; hHvb-hLvb2/N5KG4P) VH: QVQLLESGAVLARPGTSVKISCKASGFNIKDYYMHWVKQRPGQGLEWIGGNDPANGHSMYDPKFQGRVTITADTSTNTAYMELSSLRSEDTAIYYCARDSGYAMDYWGQGTLVTVSS VL: DIQMTQSPSSLSASVGDRVTITCKASQDIKSFLSWYQQKPEKAPKSLIYYATSLADGVPSRFSGSGSGTDYTLTISSLQPEDFATYYCLQHGESPYTFGGGTKVEIK",binds
14,"H chain humanized version b/L chain humanized version a antibody (antibody, V domains shown, Expressed from vector N5KG4P (IgG4-type, human Cgamma4 and Ckappa); also called b-a; hHvb-hLva/N5KG4P) VH: QVQLLESGAVLARPGTSVKISCKASGFNIKDYYMHWVKQRPGQGLEWIGGNDPANGHSMYDPKFQGRVTITADTSTNTAYMELSSLRSEDTAIYYCARDSGYAMDYWGQGTLVTVSS VL: DIQMTQSPSSLSASVGDRVTITCKASQDIKSFLSWYQQKPGKAPKLLIYYATSLADGVPSRFSGSGSGTDFTLTISSLQPEDFATYYCLQHGESPYTFGGGTKVEIK",binds
15,"H chain humanized version b3/L chain humanized version b antibody (antibody, V domains shown, Expressed from vector N5KG4P (IgG4-type, human Cgamma4 and Ckappa); also called b3-b; hHvb3-hLvb/N5KG4P) VH: QVQLLESGAVLARPGTSVKISCKASGFNIKDYYMHWVRQAPGQGLEWIGGNDPANGHSMYDPKFQGRVTITADTSTNTAYMELSSLRSEDTAIYYCARDSGYAMDYWGQGTLVTVSS VL: DIQMTQSPSSLSASVGDRVTITCKASQDIKSFLSWYQQKPGKAPKLLIYYATSLADGVPSRFSGSGSGTDYTLTISSLQPEDFATYYCLQHGESPYTFGGGTKVEIK",binds
16,"H chain humanized version a/L chain chimeric antibody (antibody, V domains shown, Expressed from vector N5KG4P (IgG4-type, human Cgamma4 and Ckappa); also called a-ch; hHva-chLv/N5KG4P) VH: QVQLLESGAVLARPGTSVKISCKASGFNIKDYYMHWVKQRPGQGLEWIGGNDPANGHSMYDPKFQGRAKLTAATSASIAYLEFSSLTNEDSAVYYCARDSGYAMDYWGQGTLVTVSS VL: DIKMTQSPSSMYASLGERVTITCKASQDIKSFLSWYQQKPWKSPKTLIYYATSLADGVPSRFSGSGSGQDYSLTINNLESDDTATYYCLQHGESPYTFGGGTKLEIK",binds
17,"H chain humanized version c/L chain chimeric antibody (antibody, V domains shown, Expressed from vector N5KG4P (IgG4-type, human Cgamma4 and Ckappa); also called c-ch; hHvc-chLv/N5KG4P) VH: QVQLLESGAVLARPGTSVKISCKASGFNIKDYYMHWVKQRPGQGLEWIGGNDPANGHSMYDPKFQGRVTMLVDTSKNQFSLRLSSVTAADTAVYYCARDSGYAMDYWGQGTLVTVSS VL: DIKMTQSPSSMYASLGERVTITCKASQDIKSFLSWYQQKPWKSPKTLIYYATSLADGVPSRFSGSGSGQDYSLTINNLESDDTATYYCLQHGESPYTFGGGTKLEIK",binds
